From paper PMC5582858, “The yeast kinesin-5 Cin8 interacts with the microtubule in a noncanonical manner” (The Journal of Biological Chemistry, 2017)

Experiments:
[1] = target: Paclitaxel-stabilized microtubules (bovine brain αβ-tubulin) (bovine) (UniProt Q6B856); test: co-sedimentation; 3 μM Cin8, 1 μM microtubules, no added nucleotide or 1 mM ATP, ADP or AMPPNP, low and high ionic strength; SDS-PAGE of supernatant and pellet
[2] = target: Paclitaxel-stabilized microtubules (bovine brain αβ-tubulin) (bovine) (UniProt Q6B856)

Q: How did the stoichiometry N [1] turn out when “Cin8-His-Δ99 (Cin8 motor domain in which the 99-residue loop 8 insert is substituted with the 7-residue loop 8 of Kip1) (from UniProt P27895 70-535) (domain or fragment)” was run?
A: Its stoichiometry N is 1.3.

Q: And the K0.5,MT of the microtubule-stimulated steady-state ATPase (NADH coupled assay), 21 mM ionic strength [2]?
A: Its K0.5,MT of the microtubule-stimulated steady-state ATPase (NADH coupled assay), 21 mM ionic strength is 1.3 µM.
